Results taken from US8674063 (CENTRO DE INGENIERIA GENETICA Y BIOTECNOLOGIA, dated 2014).

Target: NS3pro protease of dengue virus 2 (strain S16803) (dengue virus 2 (strain S16803))
Assay: cell-based or functional assay

B1: peptide NS2Bden2+TAT (peptide 1 of table 1) (peptide)
peptide: YGRKKRRQRRRPPQGGGSSPILSITISEDG
IC50 of inhibition of DV2 infection, plaque reduction neutralization assay in Vero cells: 50 to 60 µM
